Source: the supplement of paper PMC12042874
± gives the uncertainty stated by the source.

Assay: amyloid nucleation score (Sup35N fusion, yeast selection) (log enrichment); library NNK2; higher = more nucleation; inactive = no reads after selection
In short: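 Output and input plasmid inserts were sequenced by Illumina after psi-negative yeast carrying Sup35N fused to peptides of 20 random codons had been induced 24 hours with 100 μM copper sulfate and grown 7 days at 30°C on medium lacking adenine and uracil. The nucleation score is the DiMSum log enrichment of output over input reads, centred on the mode score of non-aggregating sequences. Sequences with under 100 input reads were excluded.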

Substance	amyloid nucleation score
FASRLNWVEIHTMYGGLS	0.209 ± 0.32
FATKRERNVWFMSIEWFVRG	-0.707 ± 0.44
FCALPWGFFGYMGNLNLYSD	2.62 ± 0.083
FCCARILVNVSCVGATCGMC	8.258 ± 0.043
FCFSLCWDIFNVLSVFGYNF	-0.793 ± 1
FCGISSR	-0.411 ± 0.56
FCGYSAVVSRAGGCTNLSDE	inactive
FCHRRRYIFIWNIRCLSYLN	inactive
FCKHFYVLREHIKWADSFLM	inactive
FCKRKVTCVVY	-0.538 ± 0.45
FCLALWWHYKFVLWFRNN	-0.836 ± 0.37
FCLFQRDKTHSVWMGLKKFQ	-1.06 ± 0.78
FCLVEVWRIYVVCWPWSVGR	0.743 ± 0.47
FCLYFSKNF	3.63 ± 0.13
FCPLLPVRFHV	-0.533 ± 0.61
FCPVFST	-0.127 ± 1
FCTHSQARDQVNSNHTMALL	2.84 ± 0.064
FCWLCFIRSEV	0.554 ± 0.81
FCWSCWLFQDCSYVVIGREV	8.556 ± 0.048
FDDEMVRCIFNYRLSGYRPL	1.47 ± 0.22
FDFRNGCGNTKVEFSMHRSG	2.86 ± 0.21
FDGLHVYQCWTPVNIARVEE	0.099 ± 0.62
FDMLVNGHVIYRNRKSSSYI	0.216 ± 0.62
FDQLPRVFNYRLAILWAVYR	-0.627 ± 0.79
FDSFPSS	0.529 ± 0.2

Substance	amyloid nucleation score
FDSLAKLFSRIVLLLLLNDR	-0.032 ± 1.1
FDSSSESLGKGKCY	0.225 ± 0.49
FDTLKLCSMWDLCCHITRVA	5.904 ± 0.044
FEAVDWFKL	-0.603 ± 0.74
FECVAFSAV	-0.272 ± 0.28
FEGCCWVVGLLRLSG	8.713 ± 0.077
FEVDVA	inactive
FEWWTSMGGGECVQRNNSVA	0.697 ± 0.41
FFDNPMHKTYSGSAARARLS	-0.375 ± 0.24
FFGVSWRWARNFCYDMGQVY	-0.177 ± 1
FFISALANR	inactive
FFLDYRENISAMLPTTR	-0.833 ± 1.1
FFLGANGINALQNRSYIQPG	0.007 ± 0.79
FFLGDRIWL	inactive
FFLWVGTYSVVPGLCVYMS	3.78 ± 0.11
FFLYFVFCF	2.67 ± 0.085
FFNLNQLMFKELSMRLGHRY	0.066 ± 0.74
FFRCVLITPD	0.179 ± 0.53
FFRVQINEGDQGYQSQYF	inactive
FFSVPGAWCDKWALALANY	-0.564 ± 0.38
FFTANPV	0.335 ± 0.64
FFTVDRDFLYFPDFSKRVVM	-0.569 ± 0.79
FFVSGLFANF	1.73 ± 0.2
FGFFTTYSELAVQVIQSAVT	-0.032 ± 1.1
FGIFEQMMFLHNVCSDFTAS	-0.447 ± 1.1

Substance	amyloid nucleation score
FGIMNMKYGYTCMMSSSKSS	-1.43 ± 1.1
FGKCYYLFVSYHYMLGLACT	-0.549 ± 1
FGLTACH	-0.579 ± 0.54
FGSAFTNGSVRNYVDGVQVI	0.648 ± 0.74
FGTILGSLVLVIWI	inactive
FGWGINRVYLVNM	5.04 ± 0.088
FHFKLRGWPGRGVTSMGS	-0.873 ± 0.62
FHLFSVGTEGTPRRRKFAGD	-0.481 ± 0.78
FHPVFGMFWRTSNERSGLFQ	-1.03 ± 0.48
FHRRMFLCAVWLLRLTIVRQ	0.492 ± 0.39
FHSLRQLFMNTGVL	inactive
FIAFVYNL	1.95 ± 0.091
FIDRMKMLWGLKSWDFQCHW	0.362 ± 0.45
FIFDR	-0.257 ± 0.54
FIINKHSFQRGLFMVSLVSI	inactive
FIKMAITDRCGMAYS	-0.752 ± 0.53
FILGSESNLRVSMRLFGSNW	5.019 ± 0.03
FIWTYSYRDVWVLRVAVWLQ	0.283 ± 0.23
FKAYHSGKWTYGHITQRGRI	inactive
FKCPFSNFFAMDGYY	-0.801 ± 0.55
FKHLLSMVIVECFIVIVILC	-0.041 ± 0.5
FKQYFSYLVGLYRS	0.472 ± 0.8
FKSIDISAFSSSSHTGSYLG	0.578 ± 0.81
FKSQIDSECMFYLLG	-0.018 ± 0.17
FLCMFMFESWYDHNAVAVSY	0.66 ± 0.57

Substance	amyloid nucleation score
FLCRLLGSGRSHHIRVC	0.15 ± 0.22
FLDMSSRIMRARRPNCFFWC	-0.022 ± 0.31
FLFLCGTDTFASRNPGRGKG	0.269 ± 0.51
FLFLTTVSPRWTYRCTRFLG	4.64 ± 0.055
FLGDWKTCKVTGACKLCYGG	-0.018 ± 0.42
FLHVSRDLPYYYCFLV	-0.703 ± 0.74
FLIEFLWSMSACSAPVFLVF	-1.41 ± 1.1
FLIFTTLLYCMVDMHAGTTF	-1.77 ± 0.78
FLIINYRSCRGINFIYARFY	inactive
FLILAHLGIKNYNWV	3.885 ± 0.037
FLITCQLESTLYQW	-0.334 ± 0.64
FLMACPMFIIVYLCRT	inactive
FLNYVGDGIIEI	-0.835 ± 0.48
FLPNFSNVLFSLHPASKSGE	-0.218 ± 0.48
FLPYFNPEVSGIFCVNRMST	-0.971 ± 0.53
FLQNWKLYRCCLRVASVGGR	4.67 ± 0.11
FLRFLVCLG	-0.22 ± 1.1
FLSGVFIMRFHLNY	inactive
FLSRWSFPHGEFLLIRTLAG	-0.574 ± 0.3
FLSSYVFLCWCSLVSWGGTW	1.03 ± 0.66
FLSYYFGPFRELVF	-0.287 ± 0.56
FLTNGESGTMGI	inactive
FLVLVTFKFRAQTDFLSSWN	-0.884 ± 0.78
FLVYWTMLVVYGYCVFGWIN	-1.3 ± 0.78
FMDIHRKMGTHVFLRKCFRI	-0.771 ± 1.1

Substance	amyloid nucleation score
FMFPILDSVTPIFDIVITGD	inactive
FMGTLNRELYTGRYGVG	-0.243 ± 1
FMMHRVSTRFASKNAS	-0.072 ± 1.1
FMQICNFIC	8.012 ± 0.07
FMSLTSMLCNLRTNSCMCAR	-0.014 ± 0.21
FMVVC	0.249 ± 0.39
FMYRDLYRFMYCVVCAQFFH	4.95 ± 0.05
FNAERFLQSIEMVWWDKGFL	-1.53 ± 0.41
FNFGNDGYSFNIILWYQRYI	6.61 ± 0.063
FNGVLDWEWHGVAFAWAGLV	0.399 ± 0.65
FNIVQHVASCGWLTYTWSAA	-0.018 ± 1.1
FNLMLI	inactive
FNLYYSRGLSSCLSYSRLEV	-0.532 ± 1
FNNLFIRTADQEVTILDVTH	-0.031 ± 1
FNRVLVPRIKNTWILYCYFI	inactive
FNVNRLAVLSYVSSWSGVIM	-0.772 ± 0.35
FNYDIPPVVQGCHISAQLLP	-0.271 ± 0.74
FNYGCFVLDSDHVAGKGILI	inactive
FNYPSLFTF	-1.01 ± 1.1
FPKIQSKFSRDIFSDGNEYE	inactive
FPRSGYITHLDCATR	-0.589 ± 0.55
FQDLDLVHRLHSVSVNLETE	0.123 ± 1
FQGEGISTAF	-1.32 ± 0.5
FQIREVGEVLNC	-0.202 ± 1.1
FQYYDKYLYWFFVNN	-2.12 ± 0.73

Substance	amyloid nucleation score
FRCGRVTFNLVEYTFPPWIW	-0.78 ± 0.63
FRKEEADYHGYRLYSVAVNA	-0.214 ± 0.36
FRKWNSS	4.08 ± 0.072
FRLLWCMFSL	0.571 ± 0.13
FRLYPVPESKDLGRPGMPRQ	0.308 ± 0.23
FRMNEQSPAEWSRSVYFGGG	-0.346 ± 0.49
FRNENC	inactive
FRNNKLYIRVYRSKWTE	-1.22 ± 1.1
FRNSTATLYSVGSFTSKTQL	1.03 ± 0.19
FRRQSPNMQPSCWTDHGLRG	-0.105 ± 1.1
FRSFRRIILSFYEVNFGSII	inactive
FRSGCQFLWHERLNNNVTNA	1.54 ± 0.093
FSAYLLLLYKN	-0.738 ± 0.76
FSCMISIKRFFRVAKNASGY	4.84 ± 0.084
FSECLKTTENMKITQKGTPV	0.459 ± 0.54
FSGSALGCEMRYCSRVYWQR	4.46 ± 0.063
FSITCADFICYSLVGGERTP	9.559 ± 0.066
FSKGEATDCSWQ	0.918 ± 0.34
FSMPTYSSALAFM	-0.352 ± 0.28
FSNISSSMKNKSVRGCECGR	-1.04 ± 0.33
FSNSPVISFGQ	-0.541 ± 1
FSRGDIVA	4.41 ± 0.056
FSRLNSWILRSHGNKVKALT	0.552 ± 0.66
FSRLTGN	-0.883 ± 0.54
FSSILWRFSRLVVRSLVPKS	0.175 ± 0.27

Substance	amyloid nucleation score
FSSLIKTICLMTAMAEGMSP	-0.258 ± 0.76
FSSSYP	inactive
FSVLILFMLIWNNGCYLKED	1.94 ± 0.11
FTASFFP	0.05 ± 0.26
FTCTGRRVYAQLKNVFIFVL	1.92 ± 0.19
FTFILLGYVWRLLMYIPGMR	0.236 ± 1.1
FTIFNKLCCVNYWVCILCYR	5.144 ± 0.049
FTIHYAGTGCWMGMYINSDY	2.44 ± 0.062
FTILRDFC	0.152 ± 0.77
FTLLVYIFLYMMLIGNSFFM	inactive
FTNAPVLFVN	inactive
FTNFNDYLFWNYMNWTGYML	inactive
FTSMLS	0.374 ± 0.64
FTVLEHRMFILSYVLRTRVW	0.468 ± 0.74
FVFLFMRLKDGFYATIYISH	inactive
FVFVAARAFCRSVSNVSD	-0.399 ± 0.55
FVLCT	1.15 ± 0.33
FVLCYTTGFLVTFLLEWFFS	0.228 ± 1
FVLFENSGLFMGLDICMLCQ	1.01 ± 0.32
FVLLGGMTWHT	5.512 ± 0.027
FVLNYLI	0.709 ± 0.17
